From the DeepSol protein solubility set come the findings set out here.

The nature of this data set: soluble on expression in E. coli; label from the status in PepcDB or PDB records.
“MGFHPRVPEGEVARRIAAVGAAIDRVIGERKRKISGQMIGRAVIRERRRCVWLERSEVPLDVIREGEAFVVRFANPDGSLGQPHQLLSSWMPGDPVLEHHHHHH”: the “soluble on expression in E. coli” value is reported as “not soluble”.
On to “MGFSDLRDKVVIVTGASMGIGRAIAERFVDEGSKVIDLSIHDPGEAKYDHIECDVTNPDQVKASIDHIFKEYGSISVLVNNAGIESYGKIESMSMGEWRRIIDVNLFGYYYASKFAIPYMIRSRDPSIVNISSVQASIITKNASAYVTSKHAVIGLTKSIALDYAPLLRCNAVCPATIDTPLVRKAAELEVGSDPMRIEKKISEWGHEHPMQRIGKPQEVASAVAFLASREASFITGTCLYVDGGLSIRAPISTPELEHHHHHH”, for which the “soluble on expression in E. coli” value is listed as “soluble”.
Regarding “MGGWIRNIGRYLSYLVDDTFEEYAYDVVDGIAKARTQEELLEGVYKALRLAPKLKKKAESKGCPPPRIPSPEDIEALEEKVEQLSNPKDLRKLAVSLALWAFASWNNCPKKGKGTEGGVELEHHHHHH”, the “soluble on expression in E. coli” value is recorded as “soluble”.
On to “MGHHHHHHGSLVPRGSDVQELNSIIQRISKFDNILKDKTIINQQDLRQISWNGIPKIHRPVVWKLLIGYLPVNTKRQEGFLQRKRKEYRDSLKHTFSDQHSRDIPTWHQIEIDIPRTNPHIPLYQFKSVQNSLQRILYLWAIRHPASGYVQGINDLVTPFFETFLTEYLPPSQIDDVKIKDPSTYMVDEQITDLEADTFWCLTKLLEQITDNYIHGQPGILRQVKNLSQLVKRIDADLYNHFQNEHVEFIQFAFRWMNCLLMREFQMGTVIRMWDTYLSETSQEVTSSYSMSSNDIKPPVTPTEPRVASFVTPTKDFQSPTTALSNMTPNNAVEDSGKMRQSSLNEFHVFVCAAFLIKWSDQLMEMDFQETITFLQNPPTKDWTETDIEMLLSEAFIWQSLYKDATSHWL”, for which the “soluble on expression in E. coli” value is recorded as “soluble”.
Turning to “MGHHHHHHHHHHSSGHIDDDDKHMRGREEKAPEEPQPVKMPENNSVVEATWNDVQLEDSLGMEVGYRLIPMVDFQQDGELLGRIRSIRKKFAQDMGFLPPVVHIRDNMDLQPARYRILMKGVEIGSGDAYPGRWLAINPGTAAGTLPGEKTVDPAFGLDAIWIESALKEQAQIQGFTVVEASTVVATHLNHLIGQFSAELFGRQEAQQLLDRVSQEMPKLTEDLVPGVVTLTTLHKVLQNLLAEKVPIRDMRTILETLAEHAPLQSDPHELTAVVRVALGRAITQQWFPGNEEVQVIGLDTALERLLLQALQGGGGLEPGLADRLLAQTQEALSRQEMLGAPPVLLVNHALRPLLSRFLRRSLPQLVVLSNLELSDNRHIRMTATIGGK”, the “soluble on expression in E. coli” value was “soluble”.
With “MGHHHHHHMSADFGLIGLAVMGQNLILNAADHGFTVCAYNRTQSKVDHFLANEAKGKSIIGATSIEDFISKLKRPRKVMLLVKAGAPVDALINQIVPLLEKGDIIIDGGNSHFPDSNRRYEELKKKGILFVGSGVSGGEEGARYGPSLMPGGSEEAWPHIKNIFQSISAKSDGEPCCEWVGPAGAGHYVKMVHNGIEYGDMQLICEAYDIMKRLGGFTDKEISDVFAKWNNGVLDSFLVEITRDILKFDDVDGKPLVEKIMDTAGQKGTGKWTAINALDLGMPVTLIGEAVFARCLSALKNERIRASKVLPGPEVPKDAVKDREQFVDDLEQALYASKIISYAQGFMLIREAAATYGWKLNNPAIALMWRGGCIIRSVFLGQITKAYREEPDLENLLFNKFFADAVTKAQSGWRKSIALATTYGIPTPAFSTALSFYDGYRSERLPANLLQAQRDYFGAHTFRVLPECASDNLPVDKDIHINWTGHGGNVSSSTYQA”, the “soluble on expression in E. coli” value is “soluble”.
For “MGHHHHHHSHAELSANQSRIDALEKAGQKLIDVNHYAKDEVAARMNEVISLWKKLLEATELKGIKLREANQQQQFNRNVEDIELWLYEVEGHLASDDYGKDLTNVQNLQKKHALLEADVAAHQDRIDGITIQARQFQDAGHFDAENIKKKQEALVARYEALKEPMVARKQKLADSLRLQQLFRDVEDEETWIREKEPIAASTNRGKDLIGVQNLLKKHQALQAEIAGHEPRIKAVTQKGNAMVEEGHFAAEDVK”, the “soluble on expression in E. coli” value is on record as “soluble”.
Turning to “MGHHHHHHSHAPNCTRKSTQSDLAFFRFPRDPARCQKWVENCRRADLEDKTPDQLNKHYRLCAKHFETSMICRTSPYRTVLRDNAIPTIFDLTSHLNNP”, the “soluble on expression in E. coli” value is “not soluble”.
For the sequence “MGHHHHHHSHASELQQHVYDRAHLLSKAEIGKLESLSAKLGAKRDTDFIIITTKSTNGEDIADYTGDFYDRYGKGSTAILTIDMTNREVFIAGFKKAEQYLDNSRLNSIRNTISSDLSNENYFEAFETYIQLSYKDMGIKPGVNPDNI”, the “soluble on expression in E. coli” value is listed as “not soluble”.
Consider “MGHHHHHHSHDKAIKETSILEEYSINWTQKLGAGISGPVRVCVKKSTQERFALKILLDRPKARNEVRLHMMCATHPNIVQIIEVFANSVQFPHESSPRARLLIVMEMMEGGELFHRISQHRHFTEKQASQVTKQIALALRHCHLLNIAHRDLKPENLLFKDNSLDAPVKLCDFGFAKIDQGDLMTPQFTPYYVAPQVLEAQRRHQKEKSGIIPTSPTPYTYNKSCDLWSLGVIIYVMLCGYPPFYSKHHSRTIPKDMRRKIMTGSFEFPEEEWSQISEMAKDVVRKLLKVKPERRLTIEGVLDHPWLNSTEALDNVLPSAQLMMDKAVVAGIQQAHAEQLANMRIQDLKVSLKPLHSVNNPILRKRKLLGTKPKDSVYIHDHENGAEDSNVALEKLRDVIAQCILPQAGENEDEKLNEVMQEAWKYNRECKLLRDTLQSFSWNGRGFTDKVDRLKLAEIVKQVIEEQT”, for which the “soluble on expression in E. coli” value is given as “soluble”.
On to “MGHHHHHHSHGSYANEISSSIIINRPAERLFDLWRKPETLPILMGHFASIEILNHTDSNWRINTPIGSLIEWQARIIDEKPGEYIHWRSLEGARVPNEGRLSFQPAASEAGTAVTLTIRYNPPGGLIGKKIGQMFDMFSRDMLTKTLYRFKKLAEDER”, for which the “soluble on expression in E. coli” value was “soluble”.
Regarding “MGHHHHHHSHIHRIDSTEVIYQPRRKRAKLIGKYLMGDLLGEGSYGKVKEVLDSETLCRRAVKILKKKKLRRIPNGEANVKKEIQLLRRLRHKNVIQLVDVLYNEEKQKMYMVMEYCVCGMQEMLDSVPEKRFPVCQAHGYFCQLIDGLEYLHSQGIVHK”, the “soluble on expression in E. coli” value is recorded as “soluble”.
With “MGHHHHHHSHKNVVHQLSVTLEDLYNGATRKLALQKNVICDKCEGRGGKKGAVECCPNCRGTGMQIRIHQIGPGMVQQIQSVCMECQGHGERISPKDRCKSCNGRKIVREKKILEVHIDKGMKDGQKITFHGEGDQEPGLEPGDIIIVLDQKDHAVFT”, the “soluble on expression in E. coli” value is given as “not soluble”.
For the sequence “MGHHHHHHSHKVYWGVAWDRSDVAVKIYLSFTSDFRKSIRKYIVGDPRFEDIPAGNIRRLIYEWARKEYRNLRRMRESGVRVPRPVAVEANIIVMEFLGEKGYRAPTLAEAVEELDRGEAEAIAAEVLRQAEAIVCRARLVHADLSEYNILVWRGEPWIIDVSQAVPHSHPNAEEFLERDVENLHRFLTGKMGFEFDFDAYLSRLKS”, the “soluble on expression in E. coli” value is on record as “not soluble”.
Take “MGHHHHHHSHLSPDRRASLLTSLMLVKRDYRYDRVLFWGRILGLVADYYIAQGLSEDQLAPRKTLYSLNCTEWSLLPPATEEMVAQSSVVKGRFMGDPSYEYEHTELQKVNEGEKVFEEEIVVQIKEETRLVSVIDQIDKAVAIIPRGALFKTPFGPTHVNRTFEGLSLSEAKKLSSYFHFREPVELKNKTLLEKADLDPSLDFMDSLEHDIPKGSWSIQMERGNALVVLRSLLWPGLTFYHAPRTKNYGYVYVGTGEKNMDLPFML”: the “soluble on expression in E. coli” value is “not soluble”.
Next, “MGHHHHHHSHMAAPLGGMFSGQPPGPPQAPPGLPGQASLLQAAPGAPRPSSSTLVDELESSFEACFASLVSQDYVNGTDQEEIRTGVDQCIQKFLDIARQTECFFLQKRLQLSVQKPEQVIKEDVSELRNELQRKDALVQKHLTKLRHWQQVLEDINVQHKKPADIPQGSLAYLGAGICQHPCTSEANVSKGQRQLAYEWADA”: “not soluble”.
Consider “MGHHHHHHSHMACAEFSFHVPSLEELAGVMQKGLKDNFADVQVSVVDCPDLTKEPFTFPVKGICGKTRIAEVGGVPYLLPLVNQKKVYDLNKIAKEIKLPGAFILGAGAGPFQTLGFNSEFMPVIQTESEHKPPVNGSYFAHVNPADGGCLLEKYSEKCHDFQCALLANLFASEGQPGKVIEVKAKRRTGPLNFVTCMRETLEKHYGNKPIGMGGTFIIQKGKVKSHIMPAEFSSCPLNSDEEVNKWLHFYEMKAPLVCLPVFVSRDPGFDLRLEHTHFFSRHGEGGHYHYDTTPDIVEYLGYFLPAEFLYRIDQPKETHSIGRD”, for which the “soluble on expression in E. coli” value is reported as “soluble”.
Take “MGHHHHHHSHMACLNPVPKLYRSVIEDVIEGVRNLFAEEGIEEQVLKDLKQLWETKVLQSKATEDFFRNSIQSPLFTLQLPHSLHQTLQSSTASLVIPAGRTLPSFTTAELGTSNSSANFTFPGYPIHVPAGVTLQTVSGHLYKVNVPIMVTETSGRAGILQHPIQQVFQQLGQPSVIQTSVPQLNPWSLQATTEKSQRIETVLQQPAILPSGPVDRKHLENATSDILVSPGNEHKIVPEALLCHQESSHYISLPGVVFSPQVSQTNSD”: the “soluble on expression in E. coli” value is listed as “not soluble”.
As for “MGHHHHHHSHMADQKKVSEAAKEREIKISSSDNEIFLVPRNVIRLSNTINTLLMDLGLDDEEGTNAEPIPVQNVTASILKKVISWCNHHHSDPISTEDSDNREKRTDDIGSWDVEFLKVDQGTLFELILAANYLDIKGLLDVTCKTVANMIKGKSPEEIRRTFNIKNDFTPEEEEQIRKENAWCED”, the “soluble on expression in E. coli” value is listed as “soluble”.
On to “MGHHHHHHSHMAFMVKSMVGGQLKNLTGSLGGGEDKGDGDKSAAEAQGMSREEYEEYQKQLVEEKMERDAQFTQRKAERATLRSHFRDKYRLPKNETDESQIQLAGGDVELPRELAKMIEEDTEEEEDKASVLGQLASLPGLDLSSLKDKAQTTLGDLKQSAEKCHIM”, for which the “soluble on expression in E. coli” value is given as “not soluble”.
Take “MGHHHHHHSHMAGAGVPGEATGRGAGGRRRKRPLQRGKPPYSYIALIAMAIAHAPERRLTLGGIYKFITERFPFYRDNPKKWQNSIRHNLTLNDCFLKIPREAGRPGKGNYWALDPNAEDMFESGSFLRRRKRFKRSDLST”: the “soluble on expression in E. coli” value was “soluble”.
Next, “MGHHHHHHSHMAGEKAQKKGKEKWKEKTWYTVESPPYLGSKEVTVALGEDPESMVNRIVEVPISDLTGNFKKSNEKALFRITGCEGTKCKTIFIGHYIGDDYIRRLVRRRKERIDIIEDVKTSDGSIITVKIVVVSDGKLTNTKKSEIRKALTSFIVSKGSQLSYADFVRYLIGDDSYNDMVEATKNIYPLRKIEIRKSELVSLSGMQEPQKNEPAPGGEAIAQN”: “not soluble”.
The result for “MGHHHHHHSHMAIVEHLYQQGMLSVAEELCQESTLNVDLDFKQPFLELNRILEALHEQDLGPALEWAVSHRQRLLELNSSLEFKLHRLHFIRLLAGGPAKQLEALSYARHFQPFARLHQREIQVMMGSLVYLRLGLEKSPYCHLLDSSHWAEICETFTRDACSLLGLSVESPLSVSFASGCVALPVLMNIKAVIEQRQCTGVWNHKDELPIEIELGMKCWYHSVFACPILRQQTSDSNPPIKLICGHVISRDALNKLINGGKLKCPYCPMEQNPADGKRIIF” reads “not soluble”; that for “MGHHHHHHSHMANPKLLGLELSEAEAIGADSARFEELLLQASKELQQAQTTRPESTQIQPQPGFCIKTNSSEGKVFINICHSPSIPPPADVTEEELLQMLEEDQAGFRIPMSLGEPHAELDAKGQGCTAYDVAVNSDFYRRMQNSDFLRELVITIAREGLEDKYNLQLNPEWRMMKNRPFMGSISQQNIRSEQRPRIQELGDLYTPAPGRAESGPEKPHLNLWLEAPDLLLAEIDLPKLDGALGLSLEIGENRLVMGGPQQLYHLDAYIPLQINSHESKAAFHRKRKQLMVAMPLLLVPS”, “not soluble”.
